# According to patent US20170298096A1 (CANIMGUIDE THERAPEUTICS, published 2017):
# No end group written: not given here.
# T1: His-tagged P3028 (human, also: His-tag, terminus and sequence not given here)
# T1 construct: used in solution in the PEPSCAN (rampo) ELISA; also called PGE73; His-tag-P3028; not shown: His tag
# T1 peptide: VFDEFKPLVEEPQNLIK
# T2: His-tagged P3028 peptide (PGE73) (human)
# T2 construct: albumin-derived peptide, in solution at 0.5 ug/mL; not shown: His-tag
# T2 peptide: VFDEFKPLVEEPQNLIK
# Target: T1, His-tagged P3028
# Test: PEPSCAN ELISA (rampo)
Binder,binding result,rampo score relative to the P28R control sample
LDTFFVKLSLFTER [SEQ ID NO 47],binds,–
KKLDTFFVKLSLITER [SEQ ID NO 365],–,≥ 98 % of P28R control
KKLDTFFVKLSLFTET [SEQ ID NO 392],–,≥ 98 % of P28R control
KKLDTFFVKLSLQTER [SEQ ID NO 370],–,≥ 98 % of P28R control
KKLDTFFVKLSLFSER [SEQ ID NO 384],–,≥ 98 % of P28R control
KKLDTFFVKLSLFFER [SEQ ID NO 376],–,≥ 98 % of P28R control
KKLDTFFVKLSLFIER [SEQ ID NO 379],–,≥ 98 % of P28R control
KKLDTFFVKLSLFGER [SEQ ID NO 377],–,≥ 98 % of P28R control
KKLDTFFVKLSLWTER [SEQ ID NO 375],–,≥ 98 % of P28R control
KKLDTFFVKLSLFMER [SEQ ID NO 381],–,≥ 98 % of P28R control
KKLDTFFVKLSLFLER [SEQ ID NO 380],–,≥ 98 % of P28R control
KKLDTFFVKLSLTTER [SEQ ID NO 373],–,≥ 98 % of P28R control
KKLDTFFVKLSLFTEY [SEQ ID NO 393],–,≥ 98 % of P28R control
KKLDTFFVKLSLFVER [SEQ ID NO 385],–,≥ 98 % of P28R control
KKLDTFFVKLSLFTEK [SEQ ID NO 389],–,≥ 98 % of P28R control
KKLDTFFVKLSLPTER [SEQ ID NO 369],–,≥ 98 % of P28R control
KKLDTFFVKLSLNTER [SEQ ID NO 368],–,≥ 98 % of P28R control
KKLDTFFVKLSLLTER [SEQ ID NO 366],–,≥ 98 % of P28R control
KKLDTFFVKLSLMTER [SEQ ID NO 367],–,≥ 98 % of P28R control
KKLDTFFVKLSLFNER [SEQ ID NO 382],–,≥ 98 % of P28R control
KKLDTFFVKLSLFTEF [SEQ ID NO 388],–,≥ 98 % of P28R control
KKLDTFFVKLSLFHER [SEQ ID NO 378],–,≥ 98 % of P28R control

Binder,binding result,rampo score relative to the P28R control sample
KKLDTFFVKLSLRTER [SEQ ID NO 371],–,≥ 98 % of P28R control
KKLDTFFVKLSLFTDR [SEQ ID NO 387],–,≥ 98 % of P28R control
KKLDTFFVKLSLFPER [SEQ ID NO 383],–,≥ 98 % of P28R control
KKLDTFFVKLSLVTER [SEQ ID NO 374],–,≥ 98 % of P28R control
KKLDTFFVKLSLSTER [SEQ ID NO 372],–,≥ 98 % of P28R control
KKLDTFFVKLSLFTEN [SEQ ID NO 390],–,≥ 98 % of P28R control
KKLDTFFVKLSLFWER [SEQ ID NO 386],–,≥ 98 % of P28R control
DTFFVKLSLFTER [SEQ ID NO 48],binds,–
KKFFVKLSLFTER [SEQ ID NO 76],binds,–
KKLDTFVKLSLFTER [SEQ ID NO 65],binds,–
KKLDTFFKLSLFTER [SEQ ID NO 66],binds,–
FVKL,binds,–
KLSLFTER [SEQ ID NO 53],binds,–
KKLDTFFVKLSFTER [SEQ ID NO 68],binds,–
KKLTFFVKLSLFTER [SEQ ID NO 64],binds,–
KKLDTFFVKLSLFTER [SEQ ID NO 391],–,≥ 98 % of P28R control
KLDTFFVKLSLFTER [SEQ ID NO 46],binds,–
KKLDTFFVKLSLFTE [SEQ ID NO 34],binds,–
FFVKLSLFTER [SEQ ID NO 50],binds,–
VKLSLFTER [SEQ ID NO 52],binds,–
FVKLSLFTER [SEQ ID NO 51],binds,–
TFFVKLSLFTER [SEQ ID NO 49],binds,–

# Target: T2, His-tagged P3028 peptide (PGE73)
# Test: PEPSCAN ELISA, peptide on card
# Experimental: After washing, the peroxidase substrate 2,2′-azine-di-3-ethylbenzthiazoline sulfonate (ABTS) and 2 μL of 3% H2O2 were added. The binding capacity of the mAb was measured as a color development at 405 nm (optical density, OD405). The color development was quantified with a charge-coupled device (CCD)—camera and an image processing system.
# The OD405-values obtained by a CCD-camera was considered as raw data values (“rampo values,” “rampo units,” or “rampo scores”). […] First the CCD-camera made a picture of the card before peroxidase coloring and then again a picture after the peroxidase coloring. […] These values were copied into an excel file and labeled as a raw data file. One follow-up manipulation was allowed. Sometimes a well can contain an air-bubble resulting in a false-positive value. If manual inspection of the cards detect an air-bubble the value are set to 0 for that well.
row,Binder,RAMPO Score
1,AKLDTFFVKLSLFTER [SEQ ID NO: 268 AKLDTFFVKLSLFTER],466
2,KKCDTFFVKLSLFTER [SEQ ID NO: 283 KKCDTFFVKLSLFTER],432
3,LKLDTFFVKLSLFTER [SEQ ID NO: 274 LKLDTFFVKLSLFTER],449
4,DKLDTFFVKLSLFTER [SEQ ID NO: 269 DKLDTFFVKLSLFTER],373
5,GKLDTFFVKLSLFTER [SEQ ID NO: 271 GKLDTFFVKLSLFTER],367
6,TKLDTFFVKLSLFTER [SEQ ID NO: 280 TKLDTFFVKLSLFTER],493
7,PKLDTFFVKLSLFTER [SEQ ID NO: 277 PKLDTFFVKLSLFTER],387
8,RKLDTFFVKLSLFTER [SEQ ID NO: 279 RKLDTFFVKLSLFTER],523
9,KKHDTFFVKLSLFTER [SEQ ID NO: 288 KKHDTFFVKLSLFTER],477
10,QKLDTFFVKLSLFTER [SEQ ID NO: 278 QKLDTFFVKLSLFTER],455
11,KKIDTFFVKLSLFTER [SEQ ID NO: 289 KKIDTFFVKLSLFTER],454
12,KKKDTFFVKLSLFTER [SEQ ID NO: 290 KKKDTFFVKLSLFTER],386
13,KKEDTFFVKLSLFTER [SEQ ID NO: 285 KKEDTFFVKLSLFTER],528
14,IKLDTFFVKLSLFTER [SEQ ID NO: 273 IKLDTFFVKLSLFTER],483
15,HKLDTFFVKLSLFTER [SEQ ID NO: 272 HKLDTFFVKLSLFTER],428
16,MKLDTFFVKLSLFTER [SEQ ID NO: 275 MKLDTFFVKLSLFTER],457
17,VKLDTFFVKLSLFTER [SEQ ID NO: 281 VKLDTFFVKLSLFTER],442
18,KKGDTFFVKLSLFTER [SEQ ID NO: 287 KKGDTFFVKLSLFTER],563
19,EKLDTFFVKLSLFTER [SEQ ID NO: 270 EKLDTFFVKLSLFTER],396
20,KKDDTFFVKLSLFTER [SEQ ID NO: 284 KKDDTFFVKLSLFTER],492
21,KKFDTFFVKLSLFTER [SEQ ID NO: 286 KKFDTFFVKLSLFTER],393
22,KKADTFFVKLSLFTER [SEQ ID NO: 282 KKADTFFVKLSLFTER],427
23,NKLDTFFVKLSLFTER [SEQ ID NO: 276 NKLDTFFVKLSLFTER],445
